{"source": "patent US20080070264A1", "about": "“Intracellular Signaling-Induced Ret-Independent Gdnf Receptor-Effected Morphological Changes” (JPMORGAN CHASE BANK N.A., priority 2003, published 2008)", "molecules": {"B1": {"name": "GDNF: recombinant glial cell line-derived neurotrophic factor from Cephalon Inc. (baculovirus-infected insect cells) or R&D Systems, Inc. (mouse myeloma NSO) (protein, UniProt P39905 78-211, looked up)", "Glial cell line-derived …": "SPDKQMAVLPRRERNRQAAAANPENSRGKGRRGQRGKNRGCVLTAIHLNVTDLGLGYETKEELIFRYCSGSCDAAETTYDKILKNLSRNRRLVSDKVGQACCRPIAFDDDLSFLDDNLVYHILRKHSAKRCGCI"}}, "system": "Src-type kinases", "assay": "Src activation (Tyr418 phosphorylation) in MDCK cells", "format": "cell-based, dog", "settings": "GFRα1-expressing and RET/GFRα1-expressing MDCK cells", "protocol": "FIG. 7A: Dose-dependent Src-kinase activation by GDNF in GFRα1-expressing and RET/GFRα1-expressing MDCK cells. The activation of Src-type kinases was observed after 15 minutes. The concentrations of GDNF are indicated. The numbers below the lane reflect the fold of increase in phosphorylation of Tyr418 of Src. The lower panels show the re-probing of the same filter with anti-Src antibodies. The results are representative of three independent experiments.\nTo analyze Src activation, subconfluent GFRα1- and RET/GFRα1-expressing MDCK cell cultures were starved for 24 h before induction in serum-free MEM. After 10 min incubation at 37° C. with 50 ng/ml GDNF (Cephalon Inc. or R&D Systems, Inc.) or 50 ng/ml HGF (Sigma) cells were lysed in lysis buffer supplemented with 1 mM Na-orthovanadate and analyzed by Western blotting as described (Lindahl et al., 2001). The Western blots were probed with the indicated antibodies and developed with ECL reagents (Amersham Pharmacia Biotech). Antibodies used included anti-Y^418 Src and anti-Src (BioSource International).\nPossible candidates for messengers between GDNF-GFRα1 complex and MET are Src family kinases. […]"}
{"molecule": "B1", "values": [{"measurement": "GDNF concentration that saturated Src phosphorylation", "value": 0.1, "unit": "pg/mL"}, {"measurement": "time at which activation of Src-type kinases was observed", "value": 15, "unit": "min"}]}
